Assay [1] deals with DR4-Ig (death receptor 4 / TRAIL-R1, Ig fusion protein) (UniProt O00220).
The target is the same in assay [2]. The source holds these as a separate data set.
Assay [3] has as its target rhTRAIL-C3 (TRAIL G131R/N199R/K201H mutant) (human) (UniProt P50591). The assay is described as follows: SEC. (SEC sorts molecules by how far they enter the pores of the column.)

Experimental findings from article PMC4394230 are described below.

As usually defined, the stoichiometry N is a count of units in the complex or per binding partner.

UniProt O00220, sequence (O00220 24-239): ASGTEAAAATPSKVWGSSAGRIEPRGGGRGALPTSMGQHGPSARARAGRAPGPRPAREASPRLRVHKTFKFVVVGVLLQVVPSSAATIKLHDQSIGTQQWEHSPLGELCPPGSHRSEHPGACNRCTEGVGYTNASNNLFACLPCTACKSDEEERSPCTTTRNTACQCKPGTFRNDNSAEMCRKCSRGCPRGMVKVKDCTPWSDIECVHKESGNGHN

“rhTRAIL-C3 (TRAIL G131R/N199R/K201H mutant) (from UniProt P50591 1-281) (ligand)”: the ED50 of apoptosis induction (annexin V) in DR4-responsive EM-2 cells, 24 hrs in assay [1] is 3.78 ng/mL. Moreover, the level of cell death in HL-60 cells (100 ng/ml, TMRE, 12 hrs) in assay [2] was 67%. The substance also displayed a stoichiometry N in assay [3] of 3.
